Source: patent US20150307585A1 (published 2015)

T1: RAC1 P29S (Ras-related C3 botulinum toxin substrate 1) peptide on HLA-A*02:01 (human)
T1 peptide: FSGEYIPTV

B1: T1 (TCR, V domains shown)
Valpha: EDQVTQSPEALRLQEGESSSLNCSYTVSGLRGLFWYRQDPGKGPEFLFTLYSAGEEKEKERLKATLTKKESFLHITAPKPEDSATYLCAVQTSQGGSEKLVFGKGTKLTVNP
Vbeta: DTEVTQTPKHLVMGMTNKKSLKCEQHMGHRAMYWYKQKAKKPPELMFVYSYEKLSINESVPSRFSPECPNSSLLNLHLHALQPEDSALYLCASSQDASGIYYEQYFGPGTRLTVT
B2: T2 (TCR, V domains shown)
Valpha: GENVEQHPSTLSVQEGDSAVIKCTYSDSASNYFPWYKQELGKGPQLIIDIRSNVGEKKDQRIAVTLNKTAKHFSLHITETQPEDSAVYFCAASRGGAQKLVFGQGTRLTINP
Vbeta: DTAVSQTPKYLVTQMGNDKSIKCEQNLGHDTMYWYKQDSKKFLKIMFSYNNKELIINETVPNRFSPKSPDKAHLNLHINSLELGDSAVYFCASSQLAGGPLYNEQFFGPGTRLTVL
B3: T3/T4, chain combination TRAV5/TRBV20-1 (TCR, V domains shown)
Valpha: GEDVEQSLFLSVREGDSSVINCTYTDSSSTYLYWYKQEPGAGLQLLTYIFSNMDMKQDQRLTVLLNKKDKHLSLRIADTQTGDSAIYFCAESKRFSDGQKLLFARGTMLKVDL
Vbeta: GAVVSQHPSWVICKSGTSVKIECRSLDFQATTMFWYRQFPKQSLMLMATSNEGSKATYEQGVEKDKFLINHASLTLSTLTVTSAHPEDSSFYICSARDLITDTQYFGPGTRLTVL
B4: T5 (TCR, V domains shown)
Valpha: GENVEQHPSTLSVQEGDSAVIKCTYSDSASNYFPWYKQELGKGPQLIIDIRSNVGEKKDQRIAVTLNKTAKHFSLHITETQPEDSAVYFCAASLGSGNTPLVFGKGTRLSVIA
Vbeta: DVKVTQSSRYLVKRTGEKVFLECVQDMDHENMFWYRQDPGLGLRLIYFSYDVKMKEKGDIPEGYSVSREKKERFSLILESASTNQTSMYLCASSLHSGRDTQYFGPGTRLTVL
B5: T6 (TCR, V domains shown)
Valpha: GESVGLHLPTLSVQEGDNSIINCAYSNSASDYFIWYKQESGKGPQFIIDIRSNMDKRQGQRVTVLLNKTVKHLSLQIAATQPGDSAVYFCAENRGANSKLTFGKGITLSVRP
Vbeta: DAGVIQSPRHEVTEMGQEVTLRCKPISGHNSLFWYRQTMMRGLELLIYFNNNVPIDDSGMPEDRFSAKMPNASFSTLKIQPSEPRDSAVYFCASSFTGGFYGYTFGSGTRLTVV

Experiments:
[1] = biological target: T1, RAC1 P29S (Ras-related C3 botulinum …); test: cytokine release
[2] = biological target: T1, RAC1 P29S (Ras-related C3 botulinum …); test: multimer staining

Binder | binding result [1] | binding result [2]
B1 | recognises | –
B2 | recognises | –
B3 | – | recognises
B4 | – | recognises
B5 | – | recognises
